The text below walks through data of the DeepSol protein solubility set.

This data set is described as follows: soluble on expression in E. coli; label from the status in PepcDB or PDB records.
Take “MPQDVDFHIPLPGRQSPDHARAEAEQLAWPRSLGLIRSDAAAERHLRGGYADLASRFYPHATGADLDLGVDLMSWFFLFDDLFDGPRGENPEDTKQLTDQVAAALDGPLPDTAPPIAHGFADIWRRTCEGMTPAWCARSARHWRNYFDGYVDEAESRFWNAPCDSAAQYLAMRRHTIGVQPTVDLAERAGRFEVPHRVFDSAVMSAMLQIAVDVNLLLNDIASLEKEEARGEQNNMVMILRREHGWSKSRSVSHMQNEVRARLEQYLLLESCLPKVGEIYQLDTAEREALERYRTDAVRTVIRGSYDWHRSSGRYDAEFALAAGAQGYLEELGSSAH”: the “soluble on expression in E. coli” value is “soluble”.
As for “MAHHHHHHMRAEIPGVVPAVVSQVSEHQLPHLYPRHTAVTDSTALPREKSTLQRTDTTDSQLFSLADLQLARGNTRRPSRSRPTSPIRKDRIPRPPSVEFDVHLEVPRPHIRVSALPKHVMWPLPIPLPNLGNTCYMNSVVQCLRQSPSLALALEQCQLNAESHPAAAAMLNFFRMSEGDPKEFLVTFKSEAAKYNDEFKDFTQADAHEFLRTFLSVVHNEINTAPRAKLHIDDMGYVGKEDEETAFGMWRDQFACFDKSPIYDLFGGTTLGTCFCNSCENSSRTFEAFLDLSLPIGHEMPFGANLEAILQANFVEGKAEKMDGSNRIYCSRCKRLRSGSRCVVVRQWPKLLVLHLKRFDEYGKKNLVNVIYPETFMTGGEKSLRYSLYGVLMHSGTEMSGHYTSYVRVAFGEWYLCNDGAITPSRSVDVMQELEKAYILFYAEVPQVEPTFF”, the entry is “not soluble”.
To “MRLFKRYTPSMIAKHISRLFKGRIYIYGVGRFEFDNGKLILPEKAEQRHFRAVKEINQEIMKLRCAYALEHHHHHH” belongs “not soluble”; to “MSELRKLELERKKQKLAELKSQRKREEDARVQNLLRSTNENGTTQNGTSRQTLSSNEVEDILRQVGISTEPTVREESPAPPPGSHSDNHVDPSASHPRISNLLSVDLEFSSVQTACTDNKDSAIYSKGTQTDDERISVGEFSLGSQEFDYDDDMIMPMDHGQFRGRAHSHDQDSPLPYNEEIAKLLGQTKQGDKGLTRQETEEKKTQTVQIVPPLSDEEKYRLTLDPEFLDSFNRSCKVISRALNEEIDICINYTKDPYEKAIASDDLLHLAQVYQDETWTAKRLVTGMAFSEHYPDLLAVSYGPCDIPNEPPGVIVVWNTKSKRMTAEFIVYCQSEIQSVAFARFHAHLLLAGCESGQICVWDNRLTSRKLPINRSPLTTQAHTYTVSCLAVVGTKNAHNFVSLSRDGRICSWNVDNLTQPVDGKELMTKEGKAASATRMSFPIGEMQTFVVGTDTGEILAASRNGADPAVIKTDVCYKGHSGTLTGIEFHRASGVVDFSHLFISSSHDWTVKLWSTKDANLKFSFESHPDLVLDVAWSPVHPAVFASIDADGNIFVWNLNEDVEGPVARLRAGAEGESVYMNRLIWSPDGKHVFVGDDEGRVHMYDVRESLYVLKSEEWNRFARVLSDMKQSNEEAENYNM”, “not soluble”.
To “MLLKTIYCKVEEEKKKLFSNAQEKWSDIRHLDGFHGQFGGWYEDEACVFTLWEDRSTYQSFMNGAHDTIYLNSNQEDTFLSCEIELFQTLYDITDTHLKDVVTEGSFVRVAICDVKVEKEKYFLQKQETIWNKGMEKAKGMLGGVVGKSLKNENRYIVLTYWKDEQTHQHYVEEIFPDLYKLANIHEDIEEIKGKQAVCKEEWLVY” belongs “not soluble”; to “MGSDKIHHHHHHMQGLGLIVCRQGSFQFSLDNKCASAKAGETLFIHEESWVQVLQETEDVEILILAYQIEPIRDIIGNSVVSMYMYSKLTPELSCVWNTGEEDEIMKYMSLIDSVLEMEESVFSLYEQKLLLLALTYRICSVYNRKLISAGQETGGRKNEIFVRLIQLIEQYYMQERSVEFYADKLCLSPKYLSALSKSICGYTVQELVFKAIIRKCISLLKNTQKNIQEISNEFGFPNASYFGTFFKKQMGMSPQQYRRNL”, “not soluble”; to “SLPSINALLQAEVLSRQITSPVSGINGDIRAKKIASIADVCESMKEQLLVLVEWAKYIPAFCELPLDDQVALLRAHAGEHLLLGATKRSMVFKDVLLLGNDYIVPRHCPELAEMSRVSIRILDELVLPFQELQIDDNEYAYLKAIIFFDPDAKGLSDPGKIKRLRSQVQVSLEDYINDRQYDSRGRFGELLLLLPTLQSITWQMIEQIQFIKLFGMAKIDNLLQEMLLGG”, “soluble”.
Turning to “MLPLPTWTLSDVDAILVLSFGGPEGQQDVIPFLENVTRGRGIPRERLEEVAVHYRHFGGISPLNALNREIIGNIIEVLSSRGLEIPVYFGNRNWHPFVNDTAEKMVRDGVRNVAVFATSAWGGYSGCRQYDEDIVRMNHHLEEKELPTLNCLKLRQFFDHPLFIEEMSSVVFQAARELGISALDELQLHQKVVFTAHSIPEVANENSGRKEDGPLYSRQVYEAASLVAKHLGISQERYDVVWQSASGNGQIPWLEPDILDYAKCQHDEGVSELVVAPIGFISDHMEVVWDLDHELQDLASDLGMSISRAATVGHTDSFATMIVELVEESLGVKPHQNLGTVPSKGCSFNGEPCEVNCCKPVQRPHSAKA”, the “soluble on expression in E. coli” value is recorded as “not soluble”.
As for “AHHHHHHGSTIKAPTLNVPGLGVDPLTQRIKEKEKKWKYKIAVLSGKGGVGKSTVAVNLTAALAKMGYFVGILDADIHGPNVAKMFGIGNTDIYAEKFEDGHFEMIPPTVDFMGQVTPIKVMSMGMMVPEDQPIIWRGSLVTKAIKQLLGDVMWGELDFMIIDFPPGTGDEILTVVQSIQLDAAIVVTTPQEVALLDTGKAVNMMKKMEVPYIAVIENMSYLICPHCGNKIDIFGEGGGEKLAEKEGVDFLGKVPIDLKAREASDLGIPIVLYGDTPAAKAFMEIAEKLVNKLKEIKGDGREK”, the entry is “not soluble”; as for “MGSDKIHHHHHHAQNTASVQEAMANYDYKTVIRLIDEESASPQLLIQKAKALKSLGRTAEALSTLQHIIIELPENQQALVEAAECCRQLSKFNEALGYYRKVMELNPEHIYAHLQYTRLLYNYQRYGDALRESIALARKDSSATVLRLMAESMEGAGMPVESMFCYLSIIRKYPSDYLSVAKLGSIFNTMKDYEGAIALTEAYRRTDSTNVEVNRQNALAYCLRKEYPTAIKRYQDLTARGDSTLLTCYYLGVSYYATKEYYKARDWLLKAKSCQSPGANLLYYLGRSCSKTLWKQEGIGYLNQAIALTIPADSIMERLYSGLADCYRQTKQTRDQIKATKEQYKYAPDKHILLYNLAFLSDKIGDTKATEHYLQAFLRTKSKQNAVLQQPDDDEEEPAPYIDYYKSATNKLESIRKEKFLKGEK”, “not soluble”.
As for “GGGVMHYTDKAALPADGEAREVAALFDTWNAALATGNPHKVADLYAPDGVLLPTVSNEVRASREQIENYFEMFLTKKPKGVINYRTVRLLDDDSAVDAGVYTFTLTDKNGKKSDVQARYTFVYEKRDGKWLIINHHSSAMPEVDTATATAAVTKAK”, the entry is “soluble”; as for “KFVSDVEKEMETLVEAVNKGKNSKKSHSFPPMNRDHRRIIHDLAQVYGLESVSYDSEPKRNVVVTAIR”, “soluble”; as for “MNKEKEQQLNEALVLFSFAYKTFTEEPDLIIKKYGIQRIHHRILFFVARFPGLSVNELLKLLEISKQALHKPMHILINKGLIFSKESDYDRRIKEIFLTNEGERLEKEISNIQREHLLSIFSQFHNGDEKSWLEIMRQLSLKRLGYAAWNKKK”, “not soluble”.
Turning to “MTDFSVWETAPFGATVDHILQRYHNVHRAQFEELVPLAQKVAQVHADTFPAEIAELLAYMQNELLMHMMKEERMLFPMINQGVGRGAAMPIGVMMHEHEEHDRAIARLKELTDNFQPPEGACGSWTRLYALAKEMVEDLNDHIHLENDILFARVLDS”, the “soluble on expression in E. coli” value was “soluble”.
To “MQLLITGGTGLIGRHLIQRLQLLSHHITVLTRDPERARGVLGNQVEYWSTLSNITSLNDFDGVINLAGEPIADKRWTPQQKQRLAQSRWSITEQLATLIKASSEPPTVFISGSAVGYYGDQGEALVTEGESPVDEFTHHLCTRWEALAQSAESDKTRVCLLRTGIVLSAQGGALAKMLPIFRLGLGGPMGSGKQYMPWIHIDDMVNGIIYLLDQPILRGPFNMVAPYPVHNEQFSAMLAHVLDRPGFLRAPAFAMKLLMGEASTLVLGGQRAIPQRLEAAGFGFRFFELEEALQDVTKKPGLEHHHHHH” belongs “soluble”; to “MAHHHHHHMVHKKQAWAKRVKKERFKKKFLTRMQATRLLQMESVQFRRLCILKGIYPRALNRSKQKQSGNEKQYYLAREIKWLVRDQIAEKMMAYRAWEKKVKRAEAMGRSEDLKVLQTSRVKPRHSLVATIKERYPYFIDAIRDVDDAMSMIHLYAFLSPEIKSDTTIEIHHSLTSGLSERAKEVCERWDRYVARARVLTKGFISIKGYYYEAIVKGERVRWLCPHEYAHRFPPGIQQYVMLSFLEFYLEMMKFVLFKLESDLARDEADRLAAEDEEGVTRANAEDFANGAALAVLDVGANQAQAKAVKEAESKRSLMEEELHKVRELFRGLTFFISREVPAKHFALVINACGGRVATDYVPSNITHVVVDRPALPPGMKKHDQLEYVQPQYIFDCLNARLVLPVTGYRIGEELPPHVSPFSVSITNSAEDNAAVVQVKKDHPRIVGYVPARVHEIRKLINPSYSAVDPEGKVAHLEDEYSDEESHVAVPEMDMEDDVSLSGDELAEARRKPAWQEEEVTEEVQRPKLSAFKVKKQREMNLMNAPTNEVVARRRQALRKAQEKSRQTETSEARLQRKMSEVKRQEAATRKMQLQVARKKAARFYKMVSGVVQGTAKKVATLEAKAKHIAEGKLRKTEDGKGLVNKRLEARRQRAEAKGKKLKERKAGNPYKKLPKWVQ”, “not soluble”; to “TSNFFCGEPIDYRGITAHRLVGAEPRPPVSGTRYAKVPGVPDEYKTGYRPANLGRSDPDSDKSLMNIAVKNLQVYQQEPKLDKVDEFIERAAADVLGYLRFLTKGERQANLNFKAAFNTLDLSTSCGPFVPGKKIDHVKDGVMDQVLAKHLYKCWSVANSGKALHHIYACGLKDELRPLDKVKEGKKRLLWGCDVGVAVCAAAVFHNICYKLKMVARFGPIAVGVDMTSRDVDVIINNLTSKASDFLCLDYSKWDSTMSPCVVRLAIDILADCCEQTELTKSVVLTLKSHPMTILDAMIVQTKRGLPSGMPFTSVINSICHWLLWSAAVYKSCAEIGLHCSNLYEDAPFYTYGDDGVYAMTPMMVSLLPAIIENLRDYGLSPTAADKTEFIDVCPLNKISFLKRTFELTDIGWVSKLDKSSILRQLEWSKTTSRHMVIEETYDLAKEERGVQLEELQVAAAAHGQEFFNFVCRELERQQAYTQFSVYSYDAARKILADRKRVVSVVPDDEFVNVME”, “soluble”.
As for “IALGGGAAKGFAHIGVLKMLEANGLAPSVVAGTSAGSVVGALYASGMDSFKIQTKAVAMDESNIRDLRFFSGGLVQGQKLQNYVNELVGKRPIEKLNMPFGAIATRLEDGQRTMFVRGNVGEAVRASCSIPGVFEPVTIGAYHYVDGGITSPVPV”, the entry is “not soluble”; as for “MLRNGRLFGHRVETGFPDLPILEVSLRTGVRVRDMDNLKRKQVMSQKEKYKRAVKGDIAYNMMRMWQGAVGPVPEDGLVSPAYVVVKPYAEANSTYFSYLFRTAAYMQEVNKFSRGIVADRNRLYWESFKQMPSLVPPRPEQDQIVTYLRTQDAHIACFIRAKRDLIALLTEQKLRIIDHAVTRGLDASVKLKPSDIEWLGEVPAHWEVKRLKFLAGNITSQTTTKADDEIYLALEHVQSWTGVARPLGGEVEFASTVKRFVADDVLFGKLRPYLAKVTRVVCAGVCVSEFLVLRSRQELILPAYLEQLLRCKRVIDLISSSTAGAKMPRADWNFIGNVRLPIPRKDEQEAILSHIGRETKDLDETIARAEDEIKLIREYRDRLIADAVTGQVDLRGWQPGPDDVVSDDDLAALGDDDAGSSDDEEADA”, “not soluble”.
